{
  "source": "patent US20070014799A1",
  "key": {"[1]": {"target": "monoclonal antibody ZAL2-103a producible from the hybridoma ZAL2-103 (FERM BP-8431)", "experiment": "competitive EIA: unlabeled human ZAQL-2 against HRP-labeled human ZAQL-2 on ZAL2-103a (50 ng/ml) captured on anti-mouse immunoglobulin plate"}, "[2]": {"target": "monoclonal antibody ZAL2-106a producible from the hybridoma ZAL2-106 (FERM BP-8432)", "experiment": "competitive EIA: unlabeled human ZAQL-2 against HRP-labeled human ZAQL-2 on ZAL2-106a (50 ng/ml) captured on anti-mouse immunoglobulin plate"}},
  "data": [
    {"binder": "Human ZAQL-2 (human Bv8 maturation peptide) (ligand) AVITGACDKDSQCGGGMCCAVSIWVKSIRICTPMGKLGDSCHPLTRKVPFFGRRMHHTCPCLPGLACLRTSFNRFICLAQK", "values": [
      {"measurement": "IC50", "setting": "[1]", "value": 0.8, "unit": "nM"},
      {"measurement": "IC50", "setting": "[2]", "value": 3, "unit": "nM"}
    ]}
  ]
}
